This note sets out measurements from publication PMC7946940 (Nature Communications, 2021).

Common to all, as to settings: both partners purified
Assay [1] addresses T1, human VPS34 complex II (VPS34/VPS15/Beclin 1/UVRAG) (human, UniProt Q8NEB9 1-887; Q99570 1-1358; Q14457 1-450; Q9P2Y5 1-699).
T1 construct: VPS34, human, subunit of complex II; VPS15, human, subunit of complex II; Beclin 1, human, subunit of complex II; UVRAG, human, subunit of complex II; Heterotetramer; Purified on IgG beads and released with TEV protease; also called endocytic complex II; source: Expi293F, transfected, purified (IgG beads, TEV protease elution, S200 gel filtration); copies: + + +
Kind of assay: HDX-MS; complex II (5 μM) alone or with 30 μM Rab5a-Q79L-GTP; 25 mM HEPES pH 8.0, 50 mM NaCl, 1 mM TCEP, room temperature; 3/30/300/3000 s.

The target of assay [2] is T2, human VPS34 complex I (VPS34/VPS15/Beclin 1/ATG14L) (human, UniProt Q8NEB9 1-887; Q99570 1-1358; Q14457 1-450; Q6ZNE5 1-492).
T2 construct: VPS34, human, subunit of complex I; VPS15, human, subunit of complex I; Beclin 1, human, subunit of complex I; ATG14L, human, subunit of complex I; Heterotetramer; Purified on IgG beads and released with TEV protease; also called autophagy-specific complex I; source: Expi293F, transfected, purified (IgG beads, TEV protease elution, S200 gel filtration); copies: + + +
The assay is described as follows: vesicle flotation assay; GTP-loaded Rab coupled by its C-terminal Cys to PE-MCC in 100 nm LUVs; 1.8 mM LUVs and 2 μM VPS34 complex, 25 mM HEPES pH 8.0, 150 mM NaCl, 1 mM TCEP, 30 min on ice; sucrose gradient, fractions on SDS-PAGE.

In assay [3] the target is T1, human VPS34 complex II …. The assay is described as above.
In assay [4] the target is T3, VPS34 (subunit of complex II–BATS in the cryo-ET structure) (human, UniProt Q8NEB9 1-887).
T3 construct: VPS34, human; source: Expi293F, transfected, purified within complex II–BATS
The assay is described as follows: cryo-EM structure; cryo-ET and subtomogram averaging, 9.8 Å; 16 μM complex II–BATS on LUVs decorated with Rab5a–GTP.

The target of assay [5] is T4, VPS15 (subunit of complex II–BATS in the cryo-ET structure) (human, UniProt Q99570 1-1358).
T4 construct: VPS15, human; source: Expi293F, transfected, purified within complex II–BATS
The description is as above.

In assay [6] the target is T1, human VPS34 complex II …. The assay is described as follows: cross-linking; proximity-triggered cross-linking by the unnatural amino acid BrCO6K at Rab5a residue 84; 50–100 molar excess of Rab5a over complex II, 100–200 molar excess over VPS34; overnight at 4 °C; SDS-PAGE and mass spectrometry of the bands.
Assay [7] concerns the target T5, human VPS34 alone (human, UniProt Q8NEB9 1-887).
T5 construct: VPS34, human; printed mass 102 kDa; source: E. coli C41 (DE3), purified (Ni-NTA, heparin, gel filtration)
The assay is described as above.

T1 sequence (Q8NEB9 whole entry, chain 1 of 4): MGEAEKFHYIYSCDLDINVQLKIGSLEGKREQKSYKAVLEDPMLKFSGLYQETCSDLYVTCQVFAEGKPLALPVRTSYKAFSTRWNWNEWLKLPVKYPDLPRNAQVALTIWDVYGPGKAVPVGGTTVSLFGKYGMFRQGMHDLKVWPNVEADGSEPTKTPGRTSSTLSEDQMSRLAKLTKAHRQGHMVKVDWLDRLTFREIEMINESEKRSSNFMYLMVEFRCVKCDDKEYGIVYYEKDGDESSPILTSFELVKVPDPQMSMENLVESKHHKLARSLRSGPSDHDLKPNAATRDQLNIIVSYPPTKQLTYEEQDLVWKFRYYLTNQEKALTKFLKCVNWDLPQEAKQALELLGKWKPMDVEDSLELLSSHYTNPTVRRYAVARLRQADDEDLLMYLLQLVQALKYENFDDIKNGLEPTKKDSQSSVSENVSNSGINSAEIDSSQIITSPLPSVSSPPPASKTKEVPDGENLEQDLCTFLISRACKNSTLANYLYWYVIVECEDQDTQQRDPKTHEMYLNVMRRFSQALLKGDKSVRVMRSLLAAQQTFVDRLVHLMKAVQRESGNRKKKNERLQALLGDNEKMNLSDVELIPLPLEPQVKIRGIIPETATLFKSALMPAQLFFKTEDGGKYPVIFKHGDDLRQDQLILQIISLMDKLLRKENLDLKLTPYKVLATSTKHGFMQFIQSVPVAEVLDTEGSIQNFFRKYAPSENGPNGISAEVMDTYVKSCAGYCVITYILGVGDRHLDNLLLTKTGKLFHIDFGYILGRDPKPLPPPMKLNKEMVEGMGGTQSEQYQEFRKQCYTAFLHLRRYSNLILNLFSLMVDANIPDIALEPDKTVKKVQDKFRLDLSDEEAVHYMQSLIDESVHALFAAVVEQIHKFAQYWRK
T1 sequence (Q99570 whole entry, chain 2 of 4): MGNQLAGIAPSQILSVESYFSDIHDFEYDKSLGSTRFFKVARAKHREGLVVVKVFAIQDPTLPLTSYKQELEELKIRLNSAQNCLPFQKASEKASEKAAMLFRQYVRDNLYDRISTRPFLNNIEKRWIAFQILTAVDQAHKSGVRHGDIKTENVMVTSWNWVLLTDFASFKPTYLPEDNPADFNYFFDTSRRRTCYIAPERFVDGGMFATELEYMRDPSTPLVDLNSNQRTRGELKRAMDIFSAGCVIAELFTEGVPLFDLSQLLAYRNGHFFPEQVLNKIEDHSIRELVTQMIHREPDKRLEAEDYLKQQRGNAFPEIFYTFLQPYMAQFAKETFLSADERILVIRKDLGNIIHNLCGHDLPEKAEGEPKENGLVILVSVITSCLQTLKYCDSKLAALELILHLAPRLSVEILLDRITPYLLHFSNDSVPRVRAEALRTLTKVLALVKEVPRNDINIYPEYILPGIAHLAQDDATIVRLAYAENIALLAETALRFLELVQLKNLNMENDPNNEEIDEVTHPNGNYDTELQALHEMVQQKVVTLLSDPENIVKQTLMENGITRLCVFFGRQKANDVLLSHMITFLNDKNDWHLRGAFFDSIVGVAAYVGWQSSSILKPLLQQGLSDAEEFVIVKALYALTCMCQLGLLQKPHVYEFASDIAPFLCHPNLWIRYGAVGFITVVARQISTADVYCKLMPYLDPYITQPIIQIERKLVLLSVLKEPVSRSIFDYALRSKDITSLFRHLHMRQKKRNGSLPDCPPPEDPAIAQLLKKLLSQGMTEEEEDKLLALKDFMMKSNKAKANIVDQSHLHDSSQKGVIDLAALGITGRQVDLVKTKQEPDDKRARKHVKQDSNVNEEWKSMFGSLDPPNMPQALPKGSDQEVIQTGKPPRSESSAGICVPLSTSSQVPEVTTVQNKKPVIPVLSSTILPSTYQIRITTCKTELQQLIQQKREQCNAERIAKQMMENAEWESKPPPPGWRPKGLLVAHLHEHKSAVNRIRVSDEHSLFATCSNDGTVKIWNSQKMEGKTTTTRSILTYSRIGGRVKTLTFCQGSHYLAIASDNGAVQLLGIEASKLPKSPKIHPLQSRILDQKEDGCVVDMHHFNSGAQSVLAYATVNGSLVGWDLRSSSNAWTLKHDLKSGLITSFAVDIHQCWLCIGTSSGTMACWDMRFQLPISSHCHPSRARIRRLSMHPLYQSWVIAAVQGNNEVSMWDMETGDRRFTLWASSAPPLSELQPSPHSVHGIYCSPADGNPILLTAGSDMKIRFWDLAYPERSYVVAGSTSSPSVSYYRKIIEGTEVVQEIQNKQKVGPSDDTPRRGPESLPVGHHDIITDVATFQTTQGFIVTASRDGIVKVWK
T1 sequence (Q14457 whole entry, chain 3 of 4): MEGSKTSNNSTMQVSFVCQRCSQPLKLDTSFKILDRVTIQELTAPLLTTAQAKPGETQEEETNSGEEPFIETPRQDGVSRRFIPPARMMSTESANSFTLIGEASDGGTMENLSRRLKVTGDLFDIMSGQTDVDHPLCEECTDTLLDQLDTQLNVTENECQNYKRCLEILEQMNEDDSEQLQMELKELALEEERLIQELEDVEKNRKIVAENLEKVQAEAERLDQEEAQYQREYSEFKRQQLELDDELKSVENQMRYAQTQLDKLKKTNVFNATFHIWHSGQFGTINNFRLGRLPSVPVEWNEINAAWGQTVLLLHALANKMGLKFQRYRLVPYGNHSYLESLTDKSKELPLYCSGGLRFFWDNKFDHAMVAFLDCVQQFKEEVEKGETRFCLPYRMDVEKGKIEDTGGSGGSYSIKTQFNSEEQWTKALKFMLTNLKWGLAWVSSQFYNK
T1 sequence (Q9P2Y5 whole entry, chain 4 of 4): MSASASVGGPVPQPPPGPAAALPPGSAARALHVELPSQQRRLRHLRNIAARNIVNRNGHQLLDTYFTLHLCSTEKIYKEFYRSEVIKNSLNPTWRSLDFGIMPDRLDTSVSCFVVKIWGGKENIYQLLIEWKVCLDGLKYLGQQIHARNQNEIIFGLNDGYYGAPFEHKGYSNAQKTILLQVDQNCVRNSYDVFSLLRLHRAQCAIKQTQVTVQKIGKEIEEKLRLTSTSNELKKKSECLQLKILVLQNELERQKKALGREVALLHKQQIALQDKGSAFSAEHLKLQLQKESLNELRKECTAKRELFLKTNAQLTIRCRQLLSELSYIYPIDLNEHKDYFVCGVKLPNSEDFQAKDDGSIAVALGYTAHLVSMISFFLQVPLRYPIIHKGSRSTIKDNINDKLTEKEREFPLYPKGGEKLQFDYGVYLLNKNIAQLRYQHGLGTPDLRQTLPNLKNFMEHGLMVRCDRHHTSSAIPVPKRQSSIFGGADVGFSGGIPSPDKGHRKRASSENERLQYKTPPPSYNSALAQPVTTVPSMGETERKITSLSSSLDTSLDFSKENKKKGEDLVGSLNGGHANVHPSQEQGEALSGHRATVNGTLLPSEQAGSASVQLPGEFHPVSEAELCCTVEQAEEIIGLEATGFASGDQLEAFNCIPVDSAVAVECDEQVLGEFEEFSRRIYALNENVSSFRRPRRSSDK
T2 sequence (Q8NEB9 whole entry, chain 1 of 4): as the sequence (Q8NEB9 whole entry, chain 1 of 4) above
T2 sequence (Q99570 whole entry, chain 2 of 4): as the sequence (Q99570 whole entry, chain 2 of 4) above
T2 sequence (Q14457 whole entry, chain 3 of 4): as the sequence (Q14457 whole entry, chain 3 of 4) above
T2 sequence (Q6ZNE5 whole entry, chain 4 of 4): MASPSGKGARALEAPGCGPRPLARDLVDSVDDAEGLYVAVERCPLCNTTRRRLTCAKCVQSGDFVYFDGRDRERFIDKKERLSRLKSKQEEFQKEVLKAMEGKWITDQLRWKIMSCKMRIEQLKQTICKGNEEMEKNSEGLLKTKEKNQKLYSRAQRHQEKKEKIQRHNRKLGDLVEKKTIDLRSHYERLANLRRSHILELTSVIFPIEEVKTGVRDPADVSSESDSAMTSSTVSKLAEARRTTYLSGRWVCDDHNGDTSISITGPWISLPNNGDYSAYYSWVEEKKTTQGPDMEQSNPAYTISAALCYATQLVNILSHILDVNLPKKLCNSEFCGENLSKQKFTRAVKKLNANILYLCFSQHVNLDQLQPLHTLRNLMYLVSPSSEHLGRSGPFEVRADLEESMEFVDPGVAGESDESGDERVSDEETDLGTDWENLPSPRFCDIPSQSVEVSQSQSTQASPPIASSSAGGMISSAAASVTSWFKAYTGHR
T3 sequence (Q8NEB9 whole entry, one chain of several): as the sequence (Q8NEB9 whole entry, chain 1 of 4) above
T5 sequence (Q8NEB9 whole entry): as the sequence (Q8NEB9 whole entry, chain 1 of 4) above
T4 sequence (Q99570 whole entry, one chain of several): as the sequence (Q99570 whole entry, chain 2 of 4) above

B1: Rab5a(1-211)-Q79L (natural protein, human, UniProt P20339 1-211, looked up)
chain: MASRGATRPNGPNTGNKICQFKLVLLGESAVGKSSLVLRFVKGQFHEFQESTIGAAFLTQTVCLDDTTVKFEIWDTAGLERYHSLAPMYYRGAQAAIVVYDITNEESFARAKNWVKELQRQASPNIVIALSGNKADLANKRAVDFQEAQSYADDNSLLFMETSAKTSMNVNEIFMAIAKKLPKNEPQNPGANSARGRGVDLTEPTQPTRNQ
notes: Rab5a, human, last 4 residues (CCSN) deleted, residues 1-211; Loaded with GTP; used soluble for HDX-MS; also called Rab5a-Q79L-GTP; Rab5a (Q79L) loaded with GTP; source: E. coli C41(DE3)RIPL, purified (as Rab5a(1–212)); not shown: His-SUMO, N-terminal, cleaved
Consider B1, for which the binding result in assay [1] is given as “binds”.

B2: Rab1a(1–204)-Q70L-C26S-C126S (natural protein)
chain: not shown
modifications: C-terminal cysteine coupled covalently to a maleimide-conjugated lipid (PE-MCC) in the membrane
notes: Loaded with GTP or GDP before coupling to GUVs or LUVs; also called Rab1a–GTP; Rab1a–GDP; source: E. coli C41(DE3)RIPL, purified (Glutathione Sepharose, TEV protease, HiTrap Q, heparin, size-exclusion chromatography); not shown: GST, N-terminal, cleaved
Consider B2, for which the binding result in assay [2] is given as “binds”.

B3: Rab5a(1–212)-Q79L-C19S-C63S (natural protein, human, UniProt P20339 1-212, looked up)
chain: MASRGATRPNGPNTGNKISQFKLVLLGESAVGKSSLVLRFVKGQFHEFQESTIGAAFLTQTVSLDDTTVKFEIWDTAGLERYHSLAPMYYRGAQAAIVVYDITNEESFARAKNWVKELQRQASPNIVIALSGNKADLANKRAVDFQEAQSYADDNSLLFMETSAKTSMNVNEIFMAIAKKLPKNEPQNPGANSARGRGVDLTEPTQPTRNQC
modifications: C-terminal cysteine coupled covalently to a maleimide-conjugated lipid (PE-MCC) in the membrane
notes: Rab5a, human, residues 1–212; Loaded with GTP or GDP before coupling to GUVs or LUVs; also called Rab5a (Q79L); membrane-anchored Rab5a–GTP; source: E. coli C41(DE3)RIPL, purified (Ni-NTA, SUMO protease, size-exclusion chromatography); not shown: His-SUMO, N-terminal, cleaved
Regarding B3, the binding result in assay [3], in assay [2], in assay [4] and in assay [5] was “binds” throughout.

B4: Rab5a S84BrCO6K (Rab5a_Q79L_1-212_C19S_C63S_S84TAG-His6) (natural protein, human, UniProt P20339 1-212, looked up)
chain: MASRGATRPNGPNTGNKISQFKLVLLGESAVGKSSLVLRFVKGQFHEFQESTIGAAFLTQTVSLDDTTVKFEIWDTAGLERYHKLAPMYYRGAQAAIVVYDITNEESFARAKNWVKELQRQASPNIVIALSGNKADLANKRAVDFQEAQSYADDNSLLFMETSAKTSMNVNEIFMAIAKKLPKNEPQNPGANSARGRGVDLTEPTQPTRNQC
modifications: BrCO6K (bromoalkyl-bearing lysine derivative, unnatural amino acid) at 84
notes: Rab5a, human, residues 1-212, amber codon at S84 read as BrCO6K; Loaded with GTP; Residue 84 is the lysine derivative BrCO6K, written as K; also called Rab5a–GTP–BrCO6K; Rab5a-84BrCO6K; source: E. coli DH10B, purified (Ni-NTA, size-exclusion chromatography)
B4: the binding result in assay [6] and in assay [7] was “binds” each time.
